Results from the supplement of paper PMC10201428.
± gives the standard deviation of the averaged measurements.

Assays:
[1] = tested on: VchCAST RNA-guided transposition machinery (E. coli BL21(DE3) host, lacZ target); assay: relative integration efficiency (T-RL orientation) vs wild-type transposon end (log2 (normalized fold change)); transposon end mutated: right end (5 bp flank + 75 bp right end); higher = more efficient transposition
Outline: (§1)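 In E. coli BL21(DE3), a T7-driven effector plasmid was paired with a pUC57 mini-transposon donor containing 1549 left-end or 1849 right-end barcoded transposon variants. Cells grew on plates with 0.1 mM IPTG at 37°C for 18 h. Relative integration efficiency was derived from Illumina reads of genomic integration junctions against input plasmids, as a log-transformed output/input barcode fold change normalised to reference barcodes.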

[2] = tested on: VchCAST RNA-guided transposition machinery (E. coli BL21(DE3) host, lacZ target); assay: relative integration efficiency (T-LR orientation) vs wild-type transposon end (log2 (normalized fold change)); transposon end mutated: right end (5 bp flank + 75 bp right end); higher = more efficient transposition
Outline: as §1

Sequence	relative integration efficiency (log2) [1]	relative integration efficiency (log2) [2]
ACATTTGTTGATACAACCATAAAATGAATTAATCACCCATAAATTGAATTAATTCACACCCATAAATTGAATAACGCTCTGATCATAGTCAGACCAACATTGCTACGACCCGTATTCGCACCGACAC	-2.34 ± 0.14	-1.25 ± 0.054
ACATTTGTTGATACAACCATAAAATGAATTATACACCCATAAATTGATAATTATCACACCCATAAATTGATATTGCCTCTGATCATAGTCAGACCAACATTGCTACGACCCGTATTCGCACCGACAC	-0.7 ± 0.18	-0.0536 ± 0.3
ACATTTGTTGATACAACCATAAAATGAGAATTACACCCATAAATTGAGAATTATCACACCCATAAATTGAGATTGCCTCTGATCATAGTCAGACCAACATTGCTACGACCCGTATTCGCACCGACAC	-1.04 ± 0.13	-0.085 ± 0.14
ACATTTGTTGATACAACCATAAAATGAGCATTACACCCATAAATTGATAATTATCACACCCATAAATTGATATTGCCTCTGATCATAGTCAGACCAACATTGCTACGACCCGTATTCGCACCGACAC	-0.394 ± 0.049	-0.621 ± 0.017
ACATTTGTTGATACAACCATAAAATGAGCCGGCACAAACGCCCGGTCGCCGGCGACACAAACGCCCGGTCGCGGTAAGAGGATCATAGTCAGACCAACATTGCTACGACCCGTATTCGCACCGACAC	-3.42 ± 0.22	-0.24 ± 0.25
ACATTTGTTGATACAACCATAAAATGAGCCGGCCACCCATAAATTGAGCCGGCTCACACCCATAAATTGAGCGGTACTCTGATCATAGTCAGACCAACATTGCTACGACCCGTATTCGCACCGACAC	-4.23 ± 0.084	-1.65 ± 0.23
ACATTTGTTGATACAACCATAAAATGAGCCGTACACCCATAAATTGATAATTATCACACCCATAAATTGATATTGCCTCTGATCATAGTCAGACCAACATTGCTACGACCCGTATTCGCACCGACAC	-0.359 ± 0.21	-0.26 ± 0.5
ACATTTGTTGATACAACCATAAAATGATAAAAACACCCATAAATTGATAATTATCACACCCATAAATTGATATTGCCTCTGATCATAGTCAGACCAACATTGCTACGACCCGTATTCGCACCGACAC	-0.347 ± 0.089	-0.253 ± 0.4
ACATTTGTTGATACAACCATAAAATGATAAAATCACCCATAAATTGATAAAATTCACACCCATAAATTGATATACGCTCTGATCATAGTCAGACCAACATTGCTACGACCCGTATTCGCACCGACAC	-1.05 ± 0.087	-0.368 ± 0.21
ACATTTGTTGATACAACCATAAAATGATAAAATGACCCATAAATTGATAATTATCACACCCATAAATTGATATTGCCTCTGATCATAGTCAGACCAACATTGCTACGACCCGTATTCGCACCGACAC	-0.49 ± 0.13	0.143 ± 0.81
ACATTTGTTGATACAACCATAAAATGATAAATACACCCATAAATTGATAAATATCACACCCATAAATTGATATAGCCTCTGATCATAGTCAGACCAACATTGCTACGACCCGTATTCGCACCGACAC	-0.443 ± 0.15	0.037 ± 0.84
ACATTTGTTGATACAACCATAAAATGATAAATACACCCATAAATTGATAATAATGACACCGAATTTAACTATAACGCTCTGATCATAGTCAGACCAACATTGCTACGACCCGTATTCGCACCGACAC	-1.36 ± 0.43	2.26 ± 0.23
ACATTTGTTGATACAACCATAAAATGATAAATACACCCATAAATTGATAATGATGACACCGAATTTAACTATAACGCTCTGATCATAGTCAGACCAACATTGCTACGACCCGTATTCGCACCGACAC	-0.862 ± 0.42	2.71 ± 0.18
ACATTTGTTGATACAACCATAAAATGATAAATACACCCATAAATTGATAATTGTGACACCGAATTTAACTATAACGCTCTGATCATAGTCAGACCAACATTGCTACGACCCGTATTCGCACCGACAC	-0.896 ± 0.3	2.56 ± 0.14
ACATTTGTTGATACAACCATAAAATGATAACACCCATAAATTGATAATTATCACACCCATAAATTGATATTGCCTCTGATCATAGTCAGACCAACATTGCTACGACCCGTATTCGCACCGACACTGA	-3.99 ± 0.2	-1.25 ± 0.2
ACATTTGTTGATACAACCATAAAATGATAAGGACACCCATAAATTGATAATTATCACACCCATAAATTGATATTGCCTCTGATCATAGTCAGACCAACATTGCTACGACCCGTATTCGCACCGACAC	-0.956 ± 0.034	-0.358 ± 0.15
ACATTTGTTGATACAACCATAAAATGATAAGGCAACCCATAAATTGATAATTATCACACCCATAAATTGATATTGCCTCTGATCATAGTCAGACCAACATTGCTACGACCCGTATTCGCACCGACAC	-0.5904 ± 0.00039	-0.414 ± 0.36
ACATTTGTTGATACAACCATAAAATGATAAGGCACAAACGCCCGGTCGCCGGCGACACAAACGCCCGGTCGCGGTAAGAGGATCATAGTCAGACCAACATTGCTACGACCCGTATTCGCACCGACAC	-2.28 ± 0.27	1.225 ± 0.01

Sequence	relative integration efficiency (log2) [1]	relative integration efficiency (log2) [2]
ACATTTGTTGATACAACCATAAAATGATAAGGCCACCCATAAATTGATAAGGCTCACACCCATAAATTGATATGTACTCTGATCATAGTCAGACCAACATTGCTACGACCCGTATTCGCACCGACAC	-1.42 ± 0.28	-0.158 ± 0.46
ACATTTGTTGATACAACCATAAAATGATAAGTACACCCATAAATTGATAAGTATCACACCCATAAATTGATATGGCCTCTGATCATAGTCAGACCAACATTGCTACGACCCGTATTCGCACCGACAC	-0.35 ± 0.029	0.407 ± 0.12
ACATTTGTTGATACAACCATAAAATGATAATAACACCCATAAAATGATAATTATCACACCCAATTTAACTATAACGCTCTGATCATAGTCAGACCAACATTGCTACGACCCGTATTCGCACCGACAC	-0.0962 ± 0.22	3.211 ± 0.011
ACATTTGTTGATACAACCATAAAATGATAATAACACCCATAAATTGATAATAATCACACCCATAAATTGATATTCCCTCTGATCATAGTCAGACCAACATTGCTACGACCCGTATTCGCACCGACAC	-0.389 ± 0.15	-0.098 ± 0.26
ACATTTGTTGATACAACCATAAAATGATAATATCACCCATAAATTGATAATATTCACACCCATAAATTGATATTCGCTCTGATCATAGTCAGACCAACATTGCTACGACCCGTATTCGCACCGACAC	-0.471 ± 0.0068	-0.639 ± 0.0008
ACATTTGTTGATACAACCATAAAATGATAATATCACCCATAAATTGATAATTATCACACCCATAAATTGATATTGCCTCTGATCATAGTCAGACCAACATTGCTACGACCCGTATTCGCACCGACAC	-0.188 ± 0.066	-0.505 ± 0.091
ACATTTGTTGATACAACCATAAAATGATAATATGTCCCATAAATTGATAATTATCACACCCATAAATTGATATTGCCTCTGATCATAGTCAGACCAACATTGCTACGACCCGTATTCGCACCGACAC	-1.29 ± 0.17	-0.96 ± 0.27
ACATTTGTTGATACAACCATAAAATGATAATCACCCATAAATTGATAATTATCACACCCATAAATTGATATTGCCTCTGATCATAGTCAGACCAACATTGCTACGACCCGTATTCGCACCGACACTG	-4.33 ± 0.1	-1.91 ± 0.79
ACATTTGTTGATACAACCATAAAATGATAATGACACCCATAAATTGATAATGATCACACCCATAAATTGATATTTCCTCTGATCATAGTCAGACCAACATTGCTACGACCCGTATTCGCACCGACAC	-0.238 ± 0.065	0.195 ± 0.093
ACATTTGTTGATACAACCATAAAATGATAATGCACAAACGCCCGGTCGCCGGCGACACAAACGCCCGGTCGCGGTAAGAGGATCATAGTCAGACCAACATTGCTACGACCCGTATTCGCACCGACAC	-2.15 ± 0.043	1.04 ± 0.18
ACATTTGTTGATACAACCATAAAATGATAATGCACCCCATAAATTGATAATTATCACACCCATAAATTGATATTGCCTCTGATCATAGTCAGACCAACATTGCTACGACCCGTATTCGCACCGACAC	-1.24 ± 0.24	-0.689 ± 0.18
ACATTTGTTGATACAACCATAAAATGATAATGCCACCCATAAATTGATAATGCTCACACCCATAAATTGATATTTACTCTGATCATAGTCAGACCAACATTGCTACGACCCGTATTCGCACCGACAC	-0.867 ± 0.17	-0.0326 ± 0.2
ACATTTGTTGATACAACCATAAAATGATAATGCCACCCATAAATTGATAATTATCACACCCATAAATTGATATTGCCTCTGATCATAGTCAGACCAACATTGCTACGACCCGTATTCGCACCGACAC	-0.625 ± 0.1	-0.173 ± 0.33
ACATTTGTTGATACAACCATAAAATGATAATTAACAAACGCCCGGTCGCCGGCGACACAAACGCCCGGTCGCGGTAAGAGGATCATAGTCAGACCAACATTGCTACGACCCGTATTCGCACCGACAC	-2.3 ± 0.29	0.957 ± 0.25
ACATTTGTTGATACAACCATAAAATGATAATTAACAAACGCCCGGTCGCCGGCTCAACAAACGCCCGGTCGCGGTACTCTGATCATAGTCAGACCAACATTGCTACGACCCGTATTCGCACCGACAC	-1.98 ± 0.26	1.12 ± 0.068
ACATTTGTTGATACAACCATAAAATGATAATTAACAAACGCCCGGTCGCCGGCTCACACCCATAAATTGATATTGCCTCTGATCATAGTCAGACCAACATTGCTACGACCCGTATTCGCACCGACAC	-3.28 ± 0.31	-0.997 ± 0.22
ACATTTGTTGATACAACCATAAAATGATAATTAACAACATAAATTGATAATTATCACACCCATAAATTGATATTGCCTCTGATCATAGTCAGACCAACATTGCTACGACCCGTATTCGCACCGACAC	-0.394 ± 0.018	-0.921 ± 0.31
